B1: Ribonuclease P protein subunit p30 (Homo sapiens), P78346 (parent)
chain: MAVFADLDLRAGSDLKALRGLVETAAHLGYSVVAINHIVDFKEKKQEIEKPVAVSELFTTLPIVQGKSRPIKILTRLTIIVSDPSHCNVLRATSSRARLYDVVAVFPKTEKLFHIACTHLDVDLVCITVTEKLPFYFKRPPINVAIDRGLAFELVYSPAIKDSTMRRYTISSALNLMQICKGKNVIISSAAERPLEIRGPYDVANLGLLFGLSESDAKAAVSTNCRAALLHGETRKTAFGIISTVKKPRPSEGDEDCLPASKKAKCEG
B2: Tuftelin-interacting protein 11 (Homo sapiens), Q9UBB9 (parent)
chain: MSLSHLYRDGEGRIDDDDDERENFEITDWDLQNEFNPNRQRHWQTKEEATYGVWAERDSDDERPSFGGKRARDYSAPVNFISAGLKKGAAEEAELEDSDDEEKPVKQDDFPKDFGPRKLKTGGNFKPSQKGFAGGTKSFMDFGSWERHTKGIGQKLLQKMGYVPGRGLGKNAQGIINPIEAKQRKGKGAVGAYGSERTTQSMQDFPVVDSEEEAEEEFQKELSQWRKDPSGSKKKPKYSYKTVEELKAKGRISKKLTAPQKELSQVKVIDMTGREQKVYYSYSQISHKHNVPDDGLPLQSQQLPQSGKEAKAPGFALPELEHNLQLLIDLTEQEIIQNDRQLQYERDMVVNLFHELEKMTEVLDHEERVISNLSKVLEMVEECERRMQPDCSNPLTLDECARIFETLQDKYYEEYRMSDRVDLAVAIVYPLMKEYFKEWDPLKDCTYGTEIISKWKSLLENDQLLSHGGQDLSADAFHRLIWEVWMPFVRNIVTQWQPRNCDPMVDFLDSWVHIIPVWILDNILDQLIFPKLQKEVENWNPLTDTVPIHSWIHPWLPLMQARLEPLYSPIRSKLSSALQKWHPSDSSAKLILQPWKDVFTPGSWEAFMVKNIVPKLGMCLGELVINPHQQHMDAFYWVIDWEGMISVSSLVGLLEKHFFPKWLQVLCSWLSNSPNYEEITKWYLGWKSMFSDQVLAHPSVKDKFNEALDIMNRAVSSNVGAYMQPGARENIAYLTHTERRKDFQYEAMQERREAENMAQRGIGVAASSVPMNFKDLIETKAEEHNIVFMPVIGKRHEGKQLYTFGRIVIYIDRGVVFVQGEKTWVPTSLQSLIDMAK
partner: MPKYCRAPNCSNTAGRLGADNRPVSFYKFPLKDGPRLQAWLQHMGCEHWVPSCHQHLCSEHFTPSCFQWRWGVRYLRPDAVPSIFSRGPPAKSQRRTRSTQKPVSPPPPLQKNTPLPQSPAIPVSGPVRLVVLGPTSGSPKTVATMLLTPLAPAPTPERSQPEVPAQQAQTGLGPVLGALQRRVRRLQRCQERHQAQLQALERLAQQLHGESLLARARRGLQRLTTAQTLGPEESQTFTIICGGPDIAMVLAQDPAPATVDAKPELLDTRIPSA
B3: G-patch domain and KOW motifs-containing protein (Homo sapiens), Q92917 (parent)
chain: MADSKEGVLPLTAASTAPISFGFTRTSARRRLADSGDGAGPSPEEKDFLKTVEGRELQSVKPQEAPKELVIPLIQNGHRRQPPARPPGPSTDTGALADGVVSQAVKELIAESKKSLEERENAGVDPTLAIPMIQKGCTPSGEGADSEPRAETVPEEANYEAVPVEAYGLAMLRGMGWKPGEGIGRTFNQVVKPRVNSLRPKGLGLGANLTEAQALTPTGPSRMPRPDEEQEKDKEDQPQGLVPGGAVVVLSGPHRGLYGKVEGLDPDNVRAMVRLAVGSRVVTVSEYYLRPVSQQEFDKNTLDLRQQNGTASSRKTLWNQELYIQQDNSERKRKHLPDRQDGPAAKSEKAAPRSQHWLHRDLRVRFVDNMYKGGQYYNTKMIIEDVLSPDTCVCRTDEGRVLEGLREDMLETLVPKAEGDRVMVVLGPQTGRVGHLLSRDRARSRALVQLPRENQVVELHYDAICQYMGPSDTDDD
partner: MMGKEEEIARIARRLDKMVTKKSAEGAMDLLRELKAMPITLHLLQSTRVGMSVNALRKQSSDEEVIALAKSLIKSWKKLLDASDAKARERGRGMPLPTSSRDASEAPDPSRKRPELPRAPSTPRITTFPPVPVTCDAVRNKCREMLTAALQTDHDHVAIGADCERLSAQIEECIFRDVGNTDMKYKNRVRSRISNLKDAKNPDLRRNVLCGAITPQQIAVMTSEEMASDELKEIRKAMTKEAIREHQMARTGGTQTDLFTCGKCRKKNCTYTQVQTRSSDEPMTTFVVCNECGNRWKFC

Variants of: B1
Conditions: with hm20a_human HMG20A
In the case of G12D, the “effect of a mutation on the interaction” value is reported as “with no effect”.

Variants of: B2
Conditions: with thap8_human THAP8, Q8NA92
In the case of R8Q, the “effect of a mutation on the interaction” value is reported as “with no effect”.
S688L was tested, and the “effect of a mutation on the interaction” value was “with no effect”.

Variants of: B3
Conditions: with tcea2_human TCEA2, Q15560
For A129T, the “effect of a mutation on the interaction” value was “with no effect”.
In the case of V393A, the “effect of a mutation on the interaction” value is reported as “with no effect”.
